In the supplement of paper PMC12764529:
± gives the half width of the 95% confidence interval.

What was measured:
[1] = folding stability dG unfold from trypsin proteolysis; higher = more stable
Outline: (§1)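 How resistant each design was to proteolysis was captured as K50, inferred by Bayesian fitting of sequencing counts. Unfolding free energy was then derived relative to a sequence-predicted unfolded-state K50 and a shared folded-state K50, per protease or combined. Digestion used trypsin and chymotrypsin at 11 threefold-diluted concentrations plus a no-protease condition, on mini-proteins under 80 residues without cysteine in a PA-tagged cDNA display construct. Designs were kept only when AlphaFold2 dimer inter-PAE was above 15.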

[2] = folding stability dG unfold from chymotrypsin proteolysis; higher = more stable
Outline: as §1

[3] = folding stability dG unfold (combined trypsin and chymotrypsin); higher = more stable
Outline: as §1

| Sequence | folding stability dG unfold [1] [kcal/mol] | folding stability dG unfold [2] [kcal/mol] | folding stability dG unfold [3] [kcal/mol] |
| --- | --- | --- | --- |
| SAGGMYILELTFTTPTSTTPRTVEVPPGNYEEAAKALREELAAEAGAADLEVTFTVYKVAPDGTLVEESAGG [r13_877_JUSTAS] | 1.16 ± 0.049 | 2.51 ± 0.097 | 2 ± 0.19 |
| SAGGMYKARIEVKNPEEVKKKIKELGLEFEIETRPDGSVDIYFPPEYVDKLIKAFPGEKIEIEPIPDESAGG [r13_261_TrMRF] | 2.94 ± 0.15 | 3.38 ± 0.11 | 3.29 ± 0.14 |
| SAGGMYKVKIYFEDTKEEIEIEASAEEVLEAIKNGDLDALKKLFPGAKIVKIEVEKVEPEPEEEEEEESAGG [r13_629_TrROS_Hall] | 3.33 ± 0.27 | 3.48 ± 0.23 | 3.44 ± 0.29 |
| SAGGMYLVKIKVKIDSPTSEKERDLYILAEPDTDVEEIVKKIPGAKNIEIEVEIIPPSENPEIASNPLSAGG [r19_339_JUSTAS] | 0.645 ± 0.12 | 0.7 ± 0.15 | 0.684 ± 0.25 |
| SAGGMYVEVVIDNPDPDISPEELAEEVARELAPDPFEIKPVKIEPELIGGIPKVTILFEVDDPEAVEESAGG [r13_979_TrMRF] | 0.238 ± 0.049 | 0.958 ± 0.019 | 0.763 ± 0.056 |
| SAGGNAKEIASYLADWFQERFPPNMKVKVSVTVTPDGIVVRIRMPGGWQFEITIKDGKLQEIEWTPYSAGGS [r8_287_TrROS] | 2.72 ± 0.07 | 2.874 ± 0.026 | 2.79 ± 0.067 |
| SAGGNGRKKVKIDISIMIPIPPNDMPPEQRMKLAKELAERIARSLARKEGADPDKIDEVKVRFHIFPWSAGG [r13_5_TrROS] | 2.03 ± 0.027 | 2.65 ± 0.067 | 2.44 ± 0.072 |
| SAGGNKATLTVSEDNYPVLLLELYAPDGELIATAPVLLDPEKGGLTAADLERLLKEIDVPPDVEVNIASAGG [r13_479_TrMRF] | 1.21 ± 0.096 | 1.36 ± 0.037 | 1.32 ± 0.091 |
| SAGGNKNGKPKPTVPFKIMVMKPKPRRNDNNGQEEPRYDMRPVEIEFPLGEEIDLEEALENPDYIFIMSAGG [r13_753_TrROS] | -0.0176 ± 0.14 | 0.276 ± 0.18 | 0.199 ± 0.15 |
| SAGGNLFIRIKIEHDGGPITHWFPIKDAEQAKDNIKEFFDQQGLPVKIKEIEVFPEEGFIPVEWRVPPSAGG [r13_567_TrROS] | 0.101 ± 0.12 | 0.485 ± 0.12 | 0.348 ± 0.11 |
| SAGGNLMIRVELYRPKPDPEGEWQKREVTLPMPPGEPIEELIDELRPPGWVIEIDIFDNGKPIREYYIRSAG [r5_278_TrROS] | 1.76 ± 0.12 | 2.86 ± 0.14 | 2.34 ± 0.35 |
| SAGGNMFMIKIDDPDALKELANEPGISSVHYNPNNGRYTVMFNFPDGMRTFEIDAEDGKIKEIEPFPSAGGS [r8_251_TrROS] | 1.58 ± 0.034 | 1.82 ± 0.037 | 1.79 ± 0.039 |
| SAGGNMWMVRVKIDDGKTFMITSPEDIEEYLKKKLGPNYKIKEVEWHRMPPPNGPPMPMHEFEIEVPSAGGS [r16_408_TrROS] | 1.28 ± 0.062 | 2.02 ± 0.1 | 1.76 ± 0.16 |
| SAGGNRIMFIVNSPEEAERFANFIRKHLPPGMNLEIEIEPFPLKDNVPPDDPDYKNQPVYMVHITIPSAGGS [r16_795_TrROS] | 3 ± 0.096 | 4.13 ± 0.12 | 3.73 ± 0.2 |
| SAGGNRKFTLIIRIKAPPGDPDKMKEEVKEIANEIADIFRDHGVKVKVKVEYDPDNGEIYVQVEFEVPSAGG [r13_755_TrROS] | 3.89 ± 0.29 | 5.12 ± 0.31 | 4.78 ± 0.29 |
| SAGGNTIMIPMDPPQAREFAKNFIGEFLDQAEENPDRPIEIMVPGPEGRYITIRVDPKEGNLEIEVVPSAGG [r13_216_TrROS] | 0.231 ± 0.057 | -0.125 ± 0.17 | 0.125 ± 0.089 |
| SAGGPATLTFEFPAEDGSRVRVEVTVEEVPFVDPRTGEPVAPFLKVHVKVTVFDEDGEAHEAEFELLSAGGS [r8_474_TrMRF] | 2.22 ± 0.043 | 4.21 ± 0.075 | 3.73 ± 0.12 |
| SAGGPDELELVIVFPAEALGTGEGGEPYTAEDIAEAIKKELPKDEVEVEIAEIDEETGEIVVTVKVPSAGGS [r16_284_TrMRF] | 0.747 ± 0.13 | 0.449 ± 0.077 | 0.748 ± 0.23 |
| SAGGPEVFVFRDPLTGTWSLAVYDPSTGLWTVTYPDGTVALYRRSGDSWELVEARPVPPAPVDPDLASAGGS [r16_687_TrMRF] | 3.34 ± 0.12 | 3.714 ± 0.014 | 3.54 ± 0.065 |
| SAGGPGAAPTSTTVTVTIHLPMPPDVSDEEAKALAKERIKEEFPPSYTIESITVDPATNVVTATVKVASAGG [r19_81_JUSTAS] | 3.32 ± 0.15 | 2.88 ± 0.1 | 3.11 ± 0.16 |
| SAGGPGFQRYPYTLELPDGRKITVEYWRMGDNPYVQIDIRHDGEPLGTIHVPVPSPDQIEDAAKDIISAGGS [r16_55_TrROS] | 1.18 ± 0.057 | 1.78 ± 0.054 | 1.58 ± 0.072 |

| Sequence | folding stability dG unfold [1] [kcal/mol] | folding stability dG unfold [2] [kcal/mol] | folding stability dG unfold [3] [kcal/mol] |
| --- | --- | --- | --- |
| SAGGPISKKKIVTAPVSYDPATGKYTITLTYPDSTYTIPSDLSDLEEALKRAKEKLEKETGIPVETVLGSAG [r5_251_JUSTAS] | 0.576 ± 0.032 | 1 ± 0.11 | 0.918 ± 0.074 |
| SAGGPKKAIEILKKEGFTIKSVDPKKKKVIATPKETDIPIEIYVIGDDKVLIVEYLKGKPIIKEFKKSAGGS [r16_197_TrMRF] | 0.834 ± 0.04 | 0.741 ± 0.12 | 0.829 ± 0.15 |
| SAGGPKPGEKWIARTKEGLVPITLEGDKVTITDALTGKKTVIPIPGASLEEIKELLLSEPDYEVYPESAGGS [r16_583_JUSTAS] | -0.603 ± 0.37 | -0.737 ± 0.32 | -0.404 ± 0.19 |
| SAGGPKVVRIRYTMPPDQARDFIEELFGRPMSADDIADKLPPGFKVGIRAHPNPNGHVTFEIWIKLPDSAGG [r13_869_TrROS] | 2.37 ± 0.062 | 3.068 ± 0.021 | 2.93 ± 0.11 |
| SAGGPLEVTLVESETTFLPEGKVVTREVTRLPDDTILVTTYTTTIDPNSGTTTTTSETVVLPAGAALSAGGS [r16_639_JUSTAS] | 2.11 ± 0.046 | 0.627 ± 0.068 | 1.49 ± 0.032 |
| SAGGPLTLEDLKNMPPGEKLEFTFGGYTYEVEIYKNDNGPPYITVKQRDPHDGEPVEEKRVPADDIVSAGGS [r16_763_TrROS] | 0.956 ± 0.032 | 1.92 ± 0.026 | 1.58 ± 0.058 |
| SAGGPLTLEFTLPNGDEVGDVTVEPLPDDSYIVTVVAEDKDRPGVYYVSLVRIPPTDRTLEVVSGPVYSAGG [r13_370_TrMRF] | 1.12 ± 0.02 | 1.24 ± 0.12 | 1.2 ± 0.064 |
| SAGGPLTLTIPLPDGTTITVTLTRNPDTPSYTATADITFPDGSVVRIHATINSDGSITIHSVEVFPASAGGS [r16_213_TrMRF] | 4.51 ± 0.57 | 5.06 ± 0.24 | 5.19 ± 0.18 |
| SAGGPMPLDDIEIHNVWPYKGEYWMVMITVPNNGKEIMIPWDDLDELLENDPNVEVDVMPIKPGQPMSAGGS [r16_61_TrROS] | 1.12 ± 0.04 | 1.21 ± 0.061 | 1.25 ± 0.083 |
| SAGGPMRRVKVEIKDPDGGKIEIDDVYVPDNSVWAKIFLPDLGREIPFPFDTPDQAVEWIKDFVLQLSAGGS [r16_736_TrROS] | 0.482 ± 0.099 | 1.15 ± 0.21 | 0.929 ± 0.29 |
| SAGGPMYIVIKVEVWNPDNGKKREINIVIPIPPGMTPEQMLEKAKELARTIAEENGYEVRIDEIHIFSAGGS [r8_312_TrROS] | 3.13 ± 0.087 | 2.862 ± 0.02 | 3.03 ± 0.098 |
| SAGGPNVPIRIRVTIERQDPDGEPKDFEFPIEYPMPPDDPEQAKEQIEELAESIAEKHGYKVEIEIEPSAGG [r13_853_TrROS] | -0.664 ± 0.18 | -0.45 ± 0.29 | -0.627 ± 0.55 |
| SAGGPPIKKAEIKEIYPEKGIINAIIELEDIPKPYEAIGIITDEKEGIIFVEIINPEGGPPLYFTIKASAGG [r13_337_TrMRF] | 0.928 ± 0.033 | 1.09 ± 0.1 | 0.972 ± 0.22 |
| SAGGPPIRIKVELWDPNGKEYTHTFPFGEPLDQILDNASKQFGLPLRVEDIEYDPDGMITITIRIPDSAGGS [r8_285_TrROS] | 1.75 ± 0.036 | 1.77 ± 0.027 | 1.8 ± 0.1 |
| SAGGPPRTVTVFVNDPDGNTYTFTFSDSVPLSTVVANVSKTLGVPLTVDSVTVHPDGTVTITVTNPGSAGGS [r8_285_TrMRF] | 4.57 ± 0.14 | 5 ± 0.06 | 4.96 ± 0.062 |
| SAGGPPVTLTLTLTFTETRTVRNPATGETVTVEKVTLTLTITLEPGMSKEQLEALLKELRELFPSLESAGGS [r8_306_TrROS_Hall] | 3.53 ± 0.25 | 5.15 ± 0.28 | 5.11 ± 0.29 |
| SAGGPPWVRVVDVRIEPVEDGGERRITLTFPPDVTLEEVRERVREMLPPGAEAELTVERVEVRPVLASAGGS [r16_393_JUSTAS] | 1.27 ± 0.016 | 1.56 ± 0.019 | 1.49 ± 0.04 |
| SAGGPRVEPLPLRVTYEDGVPPREVTVPLLAVTALDPETGEPVTFVNPGSLEVLAALLPPSVVSFDFSAGGS [r16_522_TrMRF] | 0.714 ± 0.012 | 0.703 ± 0.066 | 0.755 ± 0.05 |
| SAGGPRVFRLTYLDPETGEPRELRFSLPVPPAPDFISVYVNVPPELARRIAELLRELYPDKPVLVHRSAGGS [r8_437_TrMRF] | 2 ± 0.036 | 2.971 ± 0.019 | 2.68 ± 0.049 |
| SAGGPSVDIDPRLNEDGTPYVLATLHIVPVHSDGSSSSADIPVVFDSLDDLLAFVKAISPGSAKVSLSAGGS [r16_652_TrMRF] | 0.42 ± 0.067 | 1.27 ± 0.083 | 0.959 ± 0.058 |
| SAGGPTIRLLVLPNKAEEVAEAIKKEFGAEVKILRVEPYPLPGPDGKVLKPVYLVEIEVKVKDPRLPLSAGG [r13_943_TrMRF] | 1.17 ± 0.051 | 1.3 ± 0.14 | 1.29 ± 0.17 |
